Measurements taken from PMC6356969, “Cytosolic Isocitrate Dehydrogenase from Arabidopsis thaliana Is Regulated by Glutathionylation” (Antioxidants, 2019).

Legend:
[1] = biological target: T1, cICDH (cytosolic NADP-ICDH, At1g65930) (Arabidopsis thaliana, UniProt Q9SRZ6); test: residual activity after preincubation; LC-MS/MS of glutathionylated peptide; biotin switch; format: biochemical; details: 15 min at 25 °C before assay; covalent, S-glutathionylation of Cys363 and S-nitrosylation
T1 construct: ~90 kDa non-covalent dimer

[2] = biological target: T2, cICDH (cytosolic NADP-ICDH, At1g65930) (Arabidopsis thaliana, UniProt Q9SRZ6, C363S); test: residual activity after preincubation, NADPH at […] nm; format: biochemical; details: 1 mM GSNO preincubation, 25 °C; covalent
T2 construct: ~90 kDa non-covalent dimer

purified protein [3] = substrate: NC(=O)c1ccc[n+]([C@@H]2O[C@H](COP(=O)(O)OP(=O)(O)OC[C@H]3O[C@@H](n4cnc5c(N)ncnc54)[C@H](OP(=O)(O)O)[C@@H]3O)[C@@H](O)[C@H]2O)c1; test: purified protein; format: biochemical, Arabidopsis thaliana; details: NADP+ varied 0-1 mM, DL-isocitric acid as co-substrate, 5 mM MgCl2, 100 mM potassium phosphate pH 7.5, 25 °C
purified protein [4] = substrate: O=C(O)CC(C(=O)O)C(O)C(=O)O; test: purified protein; format: biochemical, Arabidopsis thaliana; details: 250 µM NADP+, 5 mM MgCl2, 100 mM potassium phosphate pH 7.5, 25 °C, DL-isocitric acid varied 0-5 mM
[5] = biological target: the molecule itself; test: SEC; Superose 12 column, ~10 ug His-ICDH, 50 mM Tris pH 7.5, 5 mM MgCl2, 150 mM NaCl; standards aldolase 158 kDa, conalbumin 75 kDa, ovalbumin 43 kDa; eluted at ~90 kDa against a 48.3 kDa monomer
[6] = Table 1 labels the mutant C297S, text and methods say C363S

N[C@@H](CCC(=O)N[C@@H](CSN=O)C(=O)NCC(=O)O)C(=O)O [GSNO]
activity at increasing GSNO [1]: both increasing concentrations of GSNO and GSSG progressively inhibited the cICDH activity
activity after 1 mM GSNO [2]: cICDH C363S was found to be less affected by GSNO treatment than the wild-type enzyme

B1: cytosolic NADP-dependent isocitrate dehydrogenase (cICDH), recombinant His-tagged (enzyme, Arabidopsis thaliana, UniProt Q9SRZ6 1-410, looked up)
chain: MAFEKIKVANPIVEMDGDEMTRVIWKSIKDKLITPFVELDIKYFDLGLPHRDATDDKVTIESAEATKKYNVAIKCATITPDEGRVTEFGLKQMWRSPNGTIRNILNGTVFREPIICKNVPKLVPGWTKPICIGRHAFGDQYRATDAVIKGPGKLTMTFEGKDGKTETEVFTFTGEGGVAMAMYNTDESIRAFADASMNTAYEKKWPLYLSTKNTILKKYDGRFKDIFQEVYEASWKSKYDAAGIWYEHRLIDDMVAYALKSEGGYVWACKNYDGDVQSDFLAQGFGSLGLMTSVLVCPDGKTIEAEAAHGTVTRHFRVHQKGGETSTNSIASIFAWTRGLAHRAKLDDNAKLLDFTEKLEAACVGTVESGKMTKDLALIIHGSKLSRDTYLNTEEFIDAVAAELKERLNA
notes: cytosolic NADP-dependent isocitrate dehydrogenase, Arabidopsis thaliana, At1g65930; predicted mass 48.3 kDa including the N-terminal His-tag; also called His-ICDH; His-cICDH; source: E. coli BL21, purified (Ni2+-Sepharose); not shown: His-tag, N-terminal, kept
Km (purified protein [3]): 28 µM
kcat (purified protein [3]): 5.81 s⁻¹
Km (purified protein [4]): 99 µM
kcat (purified protein [4]): 4.93 s⁻¹
kcat/Km (purified protein [4]): 49700 M⁻¹ s⁻¹
stoichiometry N [5]: 2

B2: cICDH (cytosolic NADP-ICDH, At1g65930) (Arabidopsis thaliana; C363S) (protein)
chain: MAFEKIKVANPIVEMDGDEMTRVIWKSIKDKLITPFVELDIKYFDLGLPHRDATDDKVTIESAEATKKYNVAIKCATITPDEGRVTEFGLKQMWRSPNGTIRNILNGTVFREPIICKNVPKLVPGWTKPICIGRHAFGDQYRATDAVIKGPGKLTMTFEGKDGKTETEVFTFTGEGGVAMAMYNTDESIRAFADASMNTAYEKKWPLYLSTKNTILKKYDGRFKDIFQEVYEASWKSKYDAAGIWYEHRLIDDMVAYALKSEGGYVWACKNYDGDVQSDFLAQGFGSLGLMTSVLVCPDGKTIEAEAAHGTVTRHFRVHQKGGETSTNSIASIFAWTRGLAHRAKLDDNAKLLDFTEKLEAASVGTVESGKMTKDLALIIHGSKLSRDTYLNTEEFIDAVAAELKERLNA
notes: ~90 kDa non-covalent dimer
Km (purified protein [4]; [6]): 95 µM
kcat (purified protein [4]; [6]): 4.31 s⁻¹
